Test results from US20250066503A1, “CELL INJURY INDUCING THERAPEUTIC DRUG FOR USE IN CANCER THERAPY” (CHUGAI SEIYAKU KABUSHIKI KAISHA, priority 2016, published 2025).

How the values were obtained:
[1] = biological target: T1, soluble human CD3 epsilon chain (human, UniProt P07766 23-126); test: SPR, human CD3 on the chip
T1 construct: also called CD3ε
Procedure: (§1) The activity to bind human CD3 when using hCE115HA (SEQ ID NO: 52) as the H chain variable region and L0000 (SEQ ID NO: 53) as the L-chain variable region was evaluated. This was performed using the molecular form of a single-arm antibody having a single Fab at the Fc region of a human IgG1 heterodimerized by the knobs-into-hole technique.
(§2) The affinity and binding rate constants of an anti-CD3 antibody for an antigen were measured by the single-cycle kinetics method of a surface plasmon resonance assay using Biacore™-T200 (GE Healthcare Japan). HBS-EP+(GE Healthcare Japan) was used for the running buffer, and an amine coupling kit (GE Healthcare Japan) was used to covalently bind human CD3 to the CM4 chip (carboxymethyl dextran-coated chip). The anti-CD3 antibody used as the analyte was prepared at 5 and […] using HBS-EP+. Measurements were carried out by first injecting each of the 5- and 20-g/mL anti-CD3 antibody solutions for three minutes continuously at a flow rate of 20 L/min to allow reaction to take place. Then, the solution was switched to HBS-EP+ and the dissociation phase was measured for 3 minutes. After completion of the dissociation phase measurement, the sensor chip was regenerated by washing with 10 mM Gly-HCl at pH 1.5. Measurement at the concentration of 0 was carried out by performing each of the three-minute HBS-EP+ injections twice successively to allow reaction to take place, and then switching to HBS-EP+ to measure the dissociation phase for 3 minutes. After completion of the dissociation phase measurement, the sensor chip was regenerated by washing with 10 mM Gly-HCl at pH 1.5. A data analysis software exclusively for Biacore, Biacore T200 Evaluation Software Version 1.0, was used to perform kinetic analyses to calculate the binding rate constant (ka), dissociation rate constant (kd), and the rate constant ratio from the obtained sensorgrams.

[2] = biological target: human CD3 (soluble human CD3ε chain) (Homo sapiens, UniProt P07766); test: Affinity for human CD3 by surface plasmon resonance (Biacore T200); assay type: binding
Procedure: as §1, §2
(§3) CDR and FR were determined according to the Kabat definition (Kabat numbering).
First, point mutations were introduced into FR1, FR2, FR3, CDR1, CDR2, and CDR3 of the humanized anti-human CD3ε chain antibody sequence produced in Reference Example 2, hCE115HA-ERY27_HE (SEQ ID NO: 55), to prepare modified antibodies. Next, the affinity of these modified antibodies for the soluble human CD3ε chain was determined.

[3] = biological target: human GPC3 (Homo sapiens, UniProt P51654); test: Affinity for human GPC3 by surface plasmon resonance (Biacore T200); assay type: binding
Procedure: The activity to bind human GPC3 when using GL4 (SEQ ID NO: 41) and L0000 (SEQ ID NO: 53) as the L-chain variable regions was evaluated. This was performed using the molecular form of a single-arm antibody having a single Fab at the Fc region of a human IgG1 heterodimerized by the knobs-into-hole technique. H0000 (SEQ ID NO: 40) was used for the anti-GPC3 antibody H-chain variable region.
The affinity and binding rate constants of an anti-GPC3 antibody for an antigen were measured by the multi-cycle kinetics method of a surface plasmon resonance assay using Biacore™-T200 (GE Healthcare Japan). HBS-EP+(GE Healthcare Japan) was used for the running buffer, and an amine coupling kit (GE Healthcare Japan) was used to covalently bind Protein A/G to the CM5 chip (carboxymethyl dextran-coated chip). Each anti-GPC3 antibody was prepared so that approximately 100 RU will be captured by Protein A/G. Human GPC3 used as the analyte was prepared at 8, 16, 32, 64, and 128 nM using HBS-EP+. Measurements were carried out by first allowing Protein A/G to capture the antibody solution, and then injecting the human GPC3 solution at a flow rate of […] for three minutes to allow reaction to take place. Then, the solution was switched to HBS-EP+ and the dissociation phase was measured for 15 minutes. After completion of the dissociation phase measurement, the sensor chip was regenerated by washing with 10 mM Gly-HCl at pH 1.5. Measurement at the concentration of 0 was similarly carried out by allowing Protein A/G to capture the antibody solution, performing a three-minute HBS-EP+ injection to allow reaction to take place, and then switching to HBS-EP+ to measure the dissociation phase for 15 minutes. […]
as §3
First, point mutations were introduced into CDR1, CDR2, and CDR3 of the anti-human GPC3 bispecific antibody sequence produced in Reference Example 2, H0000-ERY27_HK (SEQ ID NO: 54), to prepare modified antibodies. Next, the affinity of these modified antibodies for soluble human GPC3 was determined.

[4] = single-arm antibody, single-cycle kinetics
[5] = single-arm antibody, multi-cycle kinetics

T1 sequence (P07766 23-126 limits assumed): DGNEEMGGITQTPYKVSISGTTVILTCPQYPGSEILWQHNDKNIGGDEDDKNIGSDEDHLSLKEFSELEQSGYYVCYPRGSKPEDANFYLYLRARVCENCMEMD
Sequence of human CD3 (soluble human CD3ε chain) (P07766 23-126 limits assumed): as above
Sequence of human GPC3 (P51654 25-563 limits assumed): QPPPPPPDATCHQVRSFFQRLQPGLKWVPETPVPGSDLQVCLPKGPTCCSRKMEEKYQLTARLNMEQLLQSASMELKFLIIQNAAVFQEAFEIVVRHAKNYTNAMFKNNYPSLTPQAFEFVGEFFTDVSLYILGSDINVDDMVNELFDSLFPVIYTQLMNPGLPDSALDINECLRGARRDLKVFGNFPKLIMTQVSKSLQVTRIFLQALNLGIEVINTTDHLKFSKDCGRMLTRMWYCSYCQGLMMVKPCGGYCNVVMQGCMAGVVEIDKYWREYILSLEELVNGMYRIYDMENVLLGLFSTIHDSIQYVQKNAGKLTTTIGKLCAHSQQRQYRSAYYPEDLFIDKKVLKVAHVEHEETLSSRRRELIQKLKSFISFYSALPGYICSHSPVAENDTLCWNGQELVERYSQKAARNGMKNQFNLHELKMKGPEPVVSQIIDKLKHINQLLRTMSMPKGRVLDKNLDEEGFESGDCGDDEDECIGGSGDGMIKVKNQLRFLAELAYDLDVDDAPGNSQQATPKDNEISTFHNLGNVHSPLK

B1: rCE115H/rCE115L single-arm antibody (antibody, human IgG1, V domains shown)
VH: EVQLVETGGSLVQPGKSLKLTCATSGFTFSNAWMHWVRQSPEKQLEWVAQIKAKSNNYATYYAESVKGRFTISRDDSKSNIYLQMNSLKEEDTAVYYCRYVHYGAYYGVDAWGQGTSVTVSS
VL: DVVMTQTPVSMSVSLGGQVSISCRSSQSLVHNNGNTYVSWYIQKPSQSPQLLIYKVSNRFSGISDRFSGSGSGTDFTLKISRVEPDDLGVYYCGQGTQDPYTFGAGTKLELK
notes: single Fab on human IgG1 Fc heterodimerized by knobs-into-hole; also called rCE116H/rCE115L
Q: Which results are given for B1?
A: Kd [1]: 100 nM; koff [1]: 0.006 s⁻¹; kon [1]: 59000 M⁻¹ s⁻¹; Affinity for human CD3 ka [2, 4]: 59000 M⁻¹ s⁻¹; Affinity for human CD3 kd [2, 4]: 0.006 s⁻¹

B2: H0000/GL4: single-arm anti-GPC3 antibody, H0000 (SEQ ID NO: 40) with GL4 (SEQ ID NO: 41) (antibody, V domains shown)
VH: QVQLVQSGAEVKKPGASVKVSCKASGYTFTDYEMHWIRQPPGQGLEWIGAIDPKTGDTAYSQKFKGRVTLTADKSTSTAYMELSSLTSEDTAVYYCTRFYSYTYWGQGTLVTVSS
VL: DIVMTQSPLSLPVTPGEPASISCRSSQSLVHSNRNTYLHWYQQKPGQAPRLLIYKVSNRFSGVPDRFSGSGSGTDFTLKISRVEAEDVGVYYCSQNTHVPPTFGQGTKLEIK
modifications: An artificially generated sequence
Q: For B2, which “Affinity for human GPC3 ka” value [3, 5] is on record?
A: 430000 M⁻¹ s⁻¹

Q: And the “Affinity for human GPC3 kd” value [3, 5]?
A: 0.0018 s⁻¹

B3: antibody-6: anti-human CD3ε chain and anti-human GPC3 bispecific antibody (antibody)
heavy: QVQLVESGGGVVQPGRSLRLSCAASGFTFSNAWMHWVRQAPGKGLEWVANIKAKSNNYATYYAESVKGRFTISRDDSKNSLYLQMNSLKTEDTAVYYCRYVHYGAYYGVDAWGQGTTVTVSSASTKGPSVFPLAPSSKSTSGGTAALGCLVKDYFPEPVTVSWNSGALTSGVHTFPAVLQSSGLYSLSSVVTVPSSSLGTQTYICNVNHKPSNTKVDKKVEPKSCDKTHTCPPCPAPEAAGGPSVFLFPPKPKDTLMISRTPEVTCVVVDVSHEDPEVKFNWYVDGVEVHNAKTKPREEQYASTYRVVSVLTVLHQDWLNGKEYKCKVSNKALPAPIEKTISKAKGQPREPQVYTLPPSRCELTKNQVSLSCAVKGFYPSDIAVEWESNGQPENNYKTTPPVLDSDGSFFLVSKLTVDKSRWQQGNVFSCSVMHEALHNHYTQKSLSLSPDYKDDDDK
light: DIVMTQSPLSLPVTPGEPASISCRSSQSLVHSNRNTYLHWYQQKPGQAPRLLIYKVSNRFSGVPDRFSGSGSGTDFTLKISRVEAEDVGVYYCGQGTQVPYTFGQGTKLEIKRTVAAPSVFIFPPSDEQLKSGTASVVCLLNNFYPREAKVQWKVDNALQSGNSQESVTEQDSKDSTYSLSSTLTLSKADYEKHKVYACEVTHQGLSSPVTKSFNRGEC
chain 1: DIVMTQSPLSLPVTPGEPASISCRSSQSLVHSNRNTYLHWYQQKPGQAPRLLIYKVSNRFSGVPDRFSGSGSGTDFTLKISRVEAEDVGVYYCSQNTHVPPTFGQGTKLEIKSSASTKGPSVFPLAPSSKSTSGGTAALGCLVKDYFPEPVTVSWNSGALTSGVHTFPAVLQSSGLYSLSSVVTVPSSSLGTQTYICNVNHKPSNTKVDKKVEPKSCDKTHTCPPCPAPEAAGGPSVFLFPPKPKDTLMISRTPEVTCVVVDVSHEDPEVKFNWYVDGVEVHNAKTKPREEQYASTYRVVSVLTVLHQDWLNGKEYKCKVSNKALPAPIEKTISKAKGQPREPQVCTLPPSRDELTKNQVSLWCLVKGFYPSDIAVEWESNGQPENNYKTTPPVLDSDGSFFLYSKLTVDKSRWQQGNVFSCSVMHEALHNHYTQKSLSLSPHHHHHHHH
chain 2: QVQLVQSGAEVKKPGASVKVSCKASGYTFTDYEMHWIRQPPGQGLEWIGAIDPKTGDTAYSQKFKGRVTLTADKSTSTAYMELSSLTSEDTAVYYCTRFYSYTYWGQGTLVTVSSASVAAPSVFIFPPSDEQLKSGTASVVCLLNNFYPREAKVQWKVDNALQSGNSQESVTEQDSKDSTYSLSSTLTLSKADYEKHKVYACEVTHQGLSSPVTKSFNRGEC
Q: With B3 as the molecule, how does the Kd ([2]; soluble human CD3ε chain, Table 12) read?
A: 16.9 nM

B4: antibody-1: anti-human CD3ε chain and anti-human GPC3 bispecific antibody (antibody)
heavy: EVQLVETGGSLVQPGKSLKLTCATSGFTFSNAWMHWVRQSPEKQLEWVAQIKAKSNNYATYYAESVKGRFTISRDDSKSNIYLQMNSLKEEDTAVYYCRYVHYGAYYGVDAWGQGTSVTVSSASTKGPSVFPLAPSSKSTSGGTAALGCLVKDYFPEPVTVSWNSGALTSGVHTFPAVLQSSGLYSLSSVVTVPSSSLGTQTYICNVNHKPSNTKVDKKVEPKSCDKTHTCPPCPAPEAAGGPSVFLFPPKPKDTLMISRTPEVTCVVVDVSHEDPEVKFNWYVDGVEVHNAKTKPREEQYASTYRVVSVLTVLHQDWLNGKEYKCKVSNKALPAPIEKTISKAKGQPREPQVYTLPPSRCELTKNQVSLSCAVKGFYPSDIAVEWESNGQPENNYKTTPPVLDSDGSFFLVSKLTVDKSRWQQGNVFSCSVMHEALHNHYTQKSLSLSPDYKDDDDK
light: DVVMTQTPVSMSVSLGGQVSISCRSSQSLVHNNGNTYVSWYIQKPSQSPQLLIYKVSNRFSGISDRFSGSGSGTDFTLKISRVEPDDLGVYYCGQGTQDPYTFGAGTKLELKRTVAAPSVFIFPPSDEQLKSGTASVVCLLNNFYPREAKVQWKVDNALQSGNSQESVTEQDSKDSTYSLSSTLTLSKADYEKHKVYACEVTHQGLSSPVTKSFNRGEC
chain 1: DIVMTQSPLSLPVTPGEPASISCRSSQSLVHSNRNTYLHWYQQKPGQAPRLLIYKVSNRFSGVPDRFSGSGSGTDFTLKISRVEAEDVGVYYCSQNTHVPPTFGQGTKLEIKSSASTKGPSVFPLAPSSKSTSGGTAALGCLVKDYFPEPVTVSWNSGALTSGVHTFPAVLQSSGLYSLSSVVTVPSSSLGTQTYICNVNHKPSNTKVDKKVEPKSCDKTHTCPPCPAPEAAGGPSVFLFPPKPKDTLMISRTPEVTCVVVDVSHEDPEVKFNWYVDGVEVHNAKTKPREEQYASTYRVVSVLTVLHQDWLNGKEYKCKVSNKALPAPIEKTISKAKGQPREPQVCTLPPSRDELTKNQVSLWCLVKGFYPSDIAVEWESNGQPENNYKTTPPVLDSDGSFFLYSKLTVDKSRWQQGNVFSCSVMHEALHNHYTQKSLSLSPHHHHHHHH
chain 2: QVQLVQSGAEVKKPGASVKVSCKASGYTFTDYEMHWIRQPPGQGLEWIGAIDPKTGDTAYSQKFKGRVTLTADKSTSTAYMELSSLTSEDTAVYYCTRFYSYTYWGQGTLVTVSSASVAAPSVFIFPPSDEQLKSGTASVVCLLNNFYPREAKVQWKVDNALQSGNSQESVTEQDSKDSTYSLSSTLTLSKADYEKHKVYACEVTHQGLSSPVTKSFNRGEC
Q: B4 was tested. Which Kd ([3]; soluble human GPC3, Table 13) did it give?
A: 4.57 nM
